Test system: Pho7 DBD, Pho7(279-368) (Schizosaccharomyces pombe)
Test: EMSA
Conditions: EMSA: 50 mM Tris-HCl pH 7.4, 10% glycerol, 340 ng poly(dI-dC), 0.6-1 pmol DNA in 10 ul, about 50 mM NaCl and 0.02% Triton X-100 from 2 ul protein diluent …; for binding signal: 27 ng Pho7 DBD, 1 pmol DNA

Row | Sequence | binding signal [% DNA bound] | other results
1 | TTTCCTTCGGACATTCTTATCAGT (double strand) [tgp1 24-bp Mut3 (AA to TT)] | 23 | –
2 | CAACAGGGGAATAGTCGCTGCTTGAAACATCCGGAAATAG (double strand) [pho1 site 1 40-bp DNA] | – | binding signal (fold affinity vs site 2 (N5)) (8.3-66 ng Pho7 DBD): 0.5
3 | TTTCCTTCGGACAAACAAATCAGT (double strand) [tgp1 24-bp Mut2 (TT to AA)] | 45 | –
4 | TTTCCTTCGGACATTCAAATCAGT (double strand) [tgp1 24-bp WT] | 81 | –
5 | CCGGAAATAGTTTTATTCGGAAATTAAAAACAAGTTTATGGCG (double strand) [pho1 site 2 43-bp DNA] | – | binding signal (fold affinity vs site 1 (N4)) (8.3-66 ng Pho7 DBD): 2

From paper PMC5559640
